Measurements as given in US20220251236A1 (Boehringer Ingelheim, published 2022).

T1: Human DLL3-His (human, UniProt Q9NYJ7 27-492)
T1 construct: also called huDLL3-His; hu DLL3
T1 sequence: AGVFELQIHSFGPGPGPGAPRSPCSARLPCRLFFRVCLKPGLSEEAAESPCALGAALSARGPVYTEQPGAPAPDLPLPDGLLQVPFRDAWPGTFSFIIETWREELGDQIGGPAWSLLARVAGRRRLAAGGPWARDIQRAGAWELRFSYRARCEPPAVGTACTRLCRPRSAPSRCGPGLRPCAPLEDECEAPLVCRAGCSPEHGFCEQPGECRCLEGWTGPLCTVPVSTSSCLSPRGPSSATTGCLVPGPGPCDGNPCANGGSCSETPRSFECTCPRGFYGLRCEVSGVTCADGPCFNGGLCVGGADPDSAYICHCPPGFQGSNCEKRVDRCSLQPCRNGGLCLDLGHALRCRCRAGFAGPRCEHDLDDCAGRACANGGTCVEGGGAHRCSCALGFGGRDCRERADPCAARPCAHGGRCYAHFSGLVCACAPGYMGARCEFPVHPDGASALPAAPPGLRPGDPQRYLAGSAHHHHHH

T2: human DLL3 (endogenous, on SCLC cell lines NCI-H82 and SHP77 and in SCLC tissue) (human, UniProt Q9NYJ7 27-618)
T2 construct: whole, on cells; also called SCLC cell lines expressing DLL3
T2 sequence (looked up): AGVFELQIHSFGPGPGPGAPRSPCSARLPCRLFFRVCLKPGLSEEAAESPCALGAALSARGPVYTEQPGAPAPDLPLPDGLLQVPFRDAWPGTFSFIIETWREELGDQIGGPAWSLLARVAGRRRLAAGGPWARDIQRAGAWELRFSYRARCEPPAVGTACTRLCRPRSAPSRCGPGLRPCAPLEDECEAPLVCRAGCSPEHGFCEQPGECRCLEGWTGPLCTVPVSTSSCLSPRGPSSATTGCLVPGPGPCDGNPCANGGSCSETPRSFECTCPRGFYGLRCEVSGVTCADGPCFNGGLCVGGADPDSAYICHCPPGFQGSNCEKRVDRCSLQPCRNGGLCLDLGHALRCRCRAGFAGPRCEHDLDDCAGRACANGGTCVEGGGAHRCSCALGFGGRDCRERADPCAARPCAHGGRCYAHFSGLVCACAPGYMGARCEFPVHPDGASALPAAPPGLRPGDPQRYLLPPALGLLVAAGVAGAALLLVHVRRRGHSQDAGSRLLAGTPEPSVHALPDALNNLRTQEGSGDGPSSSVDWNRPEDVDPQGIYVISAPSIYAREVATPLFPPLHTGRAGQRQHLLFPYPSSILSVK


Key:
[1] = target: T3, trypsin inhibitor from glycine max soybean (Glycine max (soybean)); test: SPR (Biacore T200), trypsin inhibitor on CM5 chip, sample at 1 µM
T3 construct: also called Tryp
Text: To prepare the surface for the non-specific binding experiment, chicken egg white lysozyme and trypsin inhibitor from glycine max soybean were coupled manually to a series S CM5 chip with the surface density of 3000-5000 RU using the amine coupling kit according to the manufacture instructions.

[2] = target: T1, Human DLL3-His; test: SPR (ProteOn XPR36), bispecific captured on protein A/G, hu DLL3 as analyte, Example 4B
Method in brief: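 Bispecific constructs captured on protein A/G for 200 s at 30 μl/min, baseline stabilized with PBS-T-EDTA. Human DLL3 analyte injected 300 s at 30 μl/min; dissociation followed for 1800 s.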

[3] = target: T2, human DLL3 (endogenous, on SCLC cell …); test: flow cytometry titration on SHP77 cells, PE anti-human secondary, x-fold over background
Text: (§1) Cells (T cells or human SCLC cells) were stained with increasing concentrations of two-step purified DLL3/CD3 binding proteins with increasing concentrations in FACS buffer (PBS/0.5% BSA/0.05% sodium azide). Bound molecules were detected with PE-conjugated anti-human secondary antibody (Sigma-Aldrich, #P8047).

[4] = target: T2, human DLL3 (endogenous, on SCLC cell …); test: flow cytometry titration on NCI-H82 cells, PE anti-human secondary, x-fold over background
Text: as §1

T3 sequence (P01070 25-205): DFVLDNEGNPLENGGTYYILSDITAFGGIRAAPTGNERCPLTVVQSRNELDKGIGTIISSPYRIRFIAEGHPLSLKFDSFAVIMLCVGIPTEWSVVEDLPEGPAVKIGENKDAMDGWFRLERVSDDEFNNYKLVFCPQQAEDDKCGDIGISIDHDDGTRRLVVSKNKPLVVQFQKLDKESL

Binder	Non-specific binding (RU) [1] [RU]	Kd [2] [nM]	EC50 (read off the curve) [3] [nM]	EC50 (read off the curve) [4] [nM]
DLL3#17/CD3#1 (bispecific antibody, human IgG1, kappa, lambda, L234A L235A, Heterodimer of one DLL3 chain and one CD3 chain (scFab-Fc, knob-in-hole)) chain 1: DIQMTQSPASLAASVGETVTITCRASENIYYSLAWYQQKQGKSPQLLIYNTNSLEDGVPSRFSGSGSGTQYSMKINSMQPEDTATYFCKQAYDFPLTFGAGTKLELKRTVAAPSVFIFPPSDEQLKSGTASVVCLLNNFYPREAKVQWKVDNALQSGNSQESVTEQDSKDSTYSLSSTLTLSKADYEKHKVYACEVTHQGLSSPVTKSFNRGECGGGGSEGKSSGSGSESKSTEGKSSGSGSESKSTGGGGSQIQLQQSGPEVVKPGASVKISCKASGYTFISYYIHWVKQRPGQGLEWIGWIYPGDGSTNNNEKFKGKTTLTADKSSSTAYMLLSSLTSEDSAVYFCARGEGNAMDDWGQGTSVTVSSASTKGPSVFPLAPSSKSTSGGTAALGCLVKDYFPEPVTVSWNSGALTSGVHTFPAVLQSSGLYSLSSVVTVPSSSLGTQTYICNVNHKPSNTKVDKRVEPKSCDKTHTCPPCPAPEAAGGPSVFLFPPKPKDTLMISRTPEVTCVVVDVSHEDPEVKFNWYVDGVEVHNAKTKPREEQYNSTYRVVSVLTVLHQDWLNGKEYKCKVSNKALPAPIEKTISKAKGQPREPQVYTLPPSREEMTKNQVSLWCLVKGFYPSDIAVEWESNGQPENNYKTTPPVLDSDGSFFLYSKLTVDKSRWQQGNVFSCSVMHEALHNHYTQKSLSLSPG chain 2: EAVVTQEPSLTVSPGGTVTLTCRSSTGAVTTSNYANWVQEKPGQLPRGLIGGTNKRAPWVPARFSGSLLGGKAALTLSGAQPEDEAEYFCALWYSNLWVFGGGTKLTVLGQPKAAPSVTLFPPSSEELQANKATLVCLISDFYPGAVKVAWKADGSPVNTGVETTTPSKQSNNKYAASSYLSLTPEQWKSHRSYSCQVTHEGSTVEKTVAPAECSGGGGSEGKSSGSGSESKSTEGKSSGSGSESKSTGGGGSEVQLVESGGGLVQPGGSLKLSCAASGFTFNTYAMNWVRQAPGKGLEWVARIRSKYNNYATYYADSVKDRFTISRDDSKNTAYLQMNNLKTEDTAVYYCVRHGNFGNSYVSWFAYWGQGTLVTVSAASTKGPSVFPLAPSSKSTSGGTAALGCLVKDYFPEPVTVSWNSGALTSGVHTFPAVLQSSGLYSLSSVVTVPSSSLGTQTYICNVNHKPSNTKVDKRVEPKSCDKTHTCPPCPAPEAAGGPSVFLFPPKPKDTLMISRTPEVTCVVVDVSHEDPEVKFNWYVDGVEVHNAKTKPREEQYNSTYRVVSVLTVLHQDWLNGKEYKCKVSNKALPAPIEKTISKAKGQPREPQVYTLPPSREEMTKNQVSLSCAVKGFYPSDIAVEWESNGQPENNYKTTPPVLDSDGSFFLVSKLTVDKSRWQQGNVFSCSVMHEALHNRFTQKSLSLSPG	8	< 0.02	~2	~1
DLL3#18/CD3#1 (bispecific antibody, human IgG1, kappa, lambda, L234A L235A, Heterodimer of one DLL3 chain and one CD3 chain (scFab-Fc, knob-in-hole)) chain 1: DIQMTQSPASLAASVGETVTITCRASENIYYSLAWYQQKQGKSPQLLIYNANSLEDGVPSRFSGSGSGTQYSMKINNMQPEDTATYFCKQAYDVPLTFGAGTKLELKRTVAAPSVFIFPPSDEQLKSGTASVVCLLNNFYPREAKVQWKVDNALQSGNSQESVTEQDSKDSTYSLSSTLTLSKADYEKHKVYACEVTHQGLSSPVTKSFNRGECGGGGSEGKSSGSGSESKSTEGKSSGSGSESKSTGGGGSQVQLQQSGPDLVKPGASVKMSCEASGYTFTAYFIHWVKQKPGQGLEWIGYIDPFNDDTNYNVKFKGKATLTSDTSSSIAYMELSSLTSEDSSFYYCARGTSATLDYWGHGTTLTVSSASTKGPSVFPLAPSSKSTSGGTAALGCLVKDYFPEPVTVSWNSGALTSGVHTFPAVLQSSGLYSLSSVVTVPSSSLGTQTYICNVNHKPSNTKVDKRVEPKSCDKTHTCPPCPAPEAAGGPSVFLFPPKPKDTLMISRTPEVTCVVVDVSHEDPEVKFNWYVDGVEVHNAKTKPREEQYNSTYRVVSVLTVLHQDWLNGKEYKCKVSNKALPAPIEKTISKAKGQPREPQVYTLPPSREEMTKNQVSLWCLVKGFYPSDIAVEWESNGQPENNYKTTPPVLDSDGSFFLYSKLTVDKSRWQQGNVFSCSVMHEALHNHYTQKSLSLSPG chain 2: EAVVTQEPSLTVSPGGTVTLTCRSSTGAVTTSNYANWVQEKPGQLPRGLIGGTNKRAPWVPARFSGSLLGGKAALTLSGAQPEDEAEYFCALWYSNLWVFGGGTKLTVLGQPKAAPSVTLFPPSSEELQANKATLVCLISDFYPGAVKVAWKADGSPVNTGVETTTPSKQSNNKYAASSYLSLTPEQWKSHRSYSCQVTHEGSTVEKTVAPAECSGGGGSEGKSSGSGSESKSTEGKSSGSGSESKSTGGGGSEVQLVESGGGLVQPGGSLKLSCAASGFTFNTYAMNWVRQAPGKGLEWVARIRSKYNNYATYYADSVKDRFTISRDDSKNTAYLQMNNLKTEDTAVYYCVRHGNFGNSYVSWFAYWGQGTLVTVSAASTKGPSVFPLAPSSKSTSGGTAALGCLVKDYFPEPVTVSWNSGALTSGVHTFPAVLQSSGLYSLSSVVTVPSSSLGTQTYICNVNHKPSNTKVDKRVEPKSCDKTHTCPPCPAPEAAGGPSVFLFPPKPKDTLMISRTPEVTCVVVDVSHEDPEVKFNWYVDGVEVHNAKTKPREEQYNSTYRVVSVLTVLHQDWLNGKEYKCKVSNKALPAPIEKTISKAKGQPREPQVYTLPPSREEMTKNQVSLSCAVKGFYPSDIAVEWESNGQPENNYKTTPPVLDSDGSFFLVSKLTVDKSRWQQGNVFSCSVMHEALHNRFTQKSLSLSPG	81	< 0.02	~2	~1
DLL3#13/CD3#1 (bispecific antibody, human IgG1, kappa, lambda, L234A L235A, Heterodimer of one DLL3 chain and one CD3 chain (scFab-Fc, knob-in-hole)) chain 1: DVLMTQTPLSLPVSLGDQAAISCRSSQSIVHSNGNTYLEWYLQKPGQSPKVLIYKVSNRFSGVPDRFSGSGSGTDFTLKISRVEAEDLGVYYCFQGSHVPYTFGGGTKLEIKRTVAAPSVFIFPPSDEQLKSGTASVVCLLNNFYPREAKVQWKVDNALQSGNSQESVTEQDSKDSTYSLSSTLTLSKADYEKHKVYACEVTHQGLSSPVTKSFNRGECGGGGSEGKSSGSGSESKSTEGKSSGSGSESKSTGGGGSQIQLVQSGPELKKPGETVKISCKASGYTFTNYGVTWVKQAPGKGLKWMGWINTYSGAPTYADDFNGRFALSLETSASTAYLQINNLKNEDTATYFCARLDDYDLYYFDYWGQGTALTVSSASTKGPSVFPLAPSSKSTSGGTAALGCLVKDYFPEPVTVSWNSGALTSGVHTFPAVLQSSGLYSLSSVVTVPSSSLGTQTYICNVNHKPSNTKVDKRVEPKSCDKTHTCPPCPAPEAAGGPSVFLFPPKPKDTLMISRTPEVTCVVVDVSHEDPEVKFNWYVDGVEVHNAKTKPREEQYNSTYRVVSVLTVLHQDWLNGKEYKCKVSNKALPAPIEKTISKAKGQPREPQVYTLPPSREEMTKNQVSLWCLVKGFYPSDIAVEWESNGQPENNYKTTPPVLDSDGSFFLYSKLTVDKSRWQQGNVFSCSVMHEALHNHYTQKSLSLSPG chain 2: EAVVTQEPSLTVSPGGTVTLTCRSSTGAVTTSNYANWVQEKPGQLPRGLIGGTNKRAPWVPARFSGSLLGGKAALTLSGAQPEDEAEYFCALWYSNLWVFGGGTKLTVLGQPKAAPSVTLFPPSSEELQANKATLVCLISDFYPGAVKVAWKADGSPVNTGVETTTPSKQSNNKYAASSYLSLTPEQWKSHRSYSCQVTHEGSTVEKTVAPAECSGGGGSEGKSSGSGSESKSTEGKSSGSGSESKSTGGGGSEVQLVESGGGLVQPGGSLKLSCAASGFTFNTYAMNWVRQAPGKGLEWVARIRSKYNNYATYYADSVKDRFTISRDDSKNTAYLQMNNLKTEDTAVYYCVRHGNFGNSYVSWFAYWGQGTLVTVSAASTKGPSVFPLAPSSKSTSGGTAALGCLVKDYFPEPVTVSWNSGALTSGVHTFPAVLQSSGLYSLSSVVTVPSSSLGTQTYICNVNHKPSNTKVDKRVEPKSCDKTHTCPPCPAPEAAGGPSVFLFPPKPKDTLMISRTPEVTCVVVDVSHEDPEVKFNWYVDGVEVHNAKTKPREEQYNSTYRVVSVLTVLHQDWLNGKEYKCKVSNKALPAPIEKTISKAKGQPREPQVYTLPPSREEMTKNQVSLSCAVKGFYPSDIAVEWESNGQPENNYKTTPPVLDSDGSFFLVSKLTVDKSRWQQGNVFSCSVMHEALHNRFTQKSLSLSPG	3	0.023	~2	~1
